The numbers were not newly measured in patent US20240199736A1, “COMBINATION THERAPY INVOLVING ANTIBODIES AGAINST CLAUDIN 18.2 FOR TREATMENT OF CANCER” (ASTELLAS PHARMA INC., priority 2021, published 2024), which cites them from elsewhere.

Series [1] deals with splice variant 1 of Claudin 18 (CLDN18.1) (Homo sapiens, UniProt P56856).
The target in series [2] is first extracellular domain (ECD1) of CLDN18.2 (Homo sapiens, UniProt P56856).

As to “IMAB362: chimeric IgG1 antibody directed against CLDN18.2; heavy chain SEQ ID NO: 51, light chain SEQ ID NO: 24”, in series [1], the “Binding to other claudin family members including CLDN18.1” value is given as “does not bind”. In addition, in series [2], the “Recognition of ECD1 of CLDN18.2” value is “high affinity and specificity”.
